Assay [1] concerns the target MBP-tagged UBR7. In words: MBP pull-down (blot Anti-His), band intensity. The following applies: parent: 1.00.
The target of assay [2] is MBP-tagged UBR7. In words: MBP pull-down, quantified band intensity, bar chart of three replicates. Conditions: parent: est. 1.0; read off a plot.
Assay [3] has as its target UBR7 (construct of the Co-IP assays). As to the kind of experiment: Co-IP (IP: Anti-Flag, blot Anti-HA), band intensity. Conditions: parent: 1.00.
Assay [4] has the same target. As to the kind of experiment: Co-IP (IP: Anti-Flag), quantified band intensity, bar chart of three replicates. Conditions: parent: est. 1.0; read off a plot.
A further assay has as its target UBR7-nLuc. In words: LCI assay (luciferase complementation imaging) in N. benthamiana leaves. The following applies: Luminescence signals were recorded at 48 hpi; parent: est. 1.0; read off a plot.

Take His-tagged AL7 S174A: the ratio to parent with MBP-tagged UBR7 [1] was 0.95; in the assay with MBP-tagged UBR7 [2], 0.72. Regarding AL7-3×Flag S174A, the ratio to parent in assay [3] turned out to be 0.55; in assay [4] it was 0.6. Regarding His-tagged AL7 S174D, the ratio to parent in the assay with MBP-tagged UBR7 [1] turned out to be 3.18; in the assay with MBP-tagged UBR7 [2] it was 3.1. As for AL7-3×Flag S174D, the ratio to parent amounted to 1.63 in assay [3] and 1.9 in assay [4].

In the case of cLuc-AL7 S174D, the ratio to parent in the assay with UBR7-nLuc was determined as 1.6. Same read-out and setting: with cLuc-AL7 S174A the figure was 0.98.

The values above are taken from publication PMC12164958.
